Read-outs that look alike come from different tables or passages of the source.

Assay [1] concerns the target two-chain factor VII-activating protease (tcFSAP) (human). Put plainly: enzyme inhibition kinetics.
Assay [2] shares this target. As to the kind of experiment: enzyme inhibition kinetics. The source holds these as a separate data set.
The target is the same in assay [3]. Put plainly: enzyme inhibition kinetics. The source holds these as a separate data set.
For assay [4] the target is unchanged. As to the kind of experiment: enzyme inhibition kinetics. The source holds these as a separate data set.
Assay [5] shares this target. Put plainly: SDS-stable complex formation, SDS-PAGE and Western blot. In general terms: Immunoblotting shows a protein as a band on a membrane.
Assay [6] has the same target. Put plainly: enzyme inhibition kinetics. The source holds these as a separate data set.

What is called stoichiometry N is the number of molecules, sites or subunits per partner or assembly. For the substance “recombinant human wild-type plasminogen activator inhibitor-1 (PAI-1) (from UniProt P05121 24-402) (natural protein)”, the second-order inhibition rate constant Ka in assay [1] turned out to be 443000 M⁻¹ s⁻¹; in assay [2], 1.61e+06 M⁻¹ s⁻¹; in assay [3], 623000 M⁻¹ s⁻¹; in assay [4] it was 558000 M⁻¹ s⁻¹; in assay [6], 338000 M⁻¹ s⁻¹. Also, in assay [5], the stoichiometry N was found to be 1.
